From PMC2531280

Substrate: NCCc1c[nH]cn1
Assay: purified protein
Format: biochemical, Pimelobacter simplex

B1: histamine dehydrogenase (HADH) (Pimelobacter simplex) (protein)
chain: MTEQPAVAAPYDVLFEPVQIGPFTTKNRFYQVPHCNGMGYRDPSAQASMRKIKAEGGWSAVCTEQVEIHATSDIAPFIELRIWDDQDLPALKRIADAIHEGGGLAGIELAHNGMNAPNQLSRETPLGPGHLPVAPDTIAPIQARAMTKQDIDDLRRWHRNAVRRSIEAGYDIVYVYGAHGYSGVHHFLSKRYNQRTDEYGGSLENRMRLLRELLEDTLDECAGRAAVACRITVEEEIDGGITREDIEGVLRELGELPDLWDFAMGSWEGDSVTSRFAPEGRQEEFVAGLKKLTTKPVVGVGRFTSPDAMVRQIKAGILDLIGAARPSIADPFLPNKIRDGRLNLIRECIGCNICVSGDLTMSPIRCTQNPSMGEEWRRGWHPERIRAKESDARVLVVGAGPSGLEAARALGVRGYDVVLAEAGRDLGGRVTQESALPGLSAWGRVKEYREAVLAELPNVEIYRESPMTGDDIVEFGFEHVITATGATWRTDGVARFHTTALPIAEGMQVLGPDDLFAGRLPDGKKVVVYDDDHYYLGGVVAELLAQKGYEVSIVTPGAQVSSWTNNTFEVNRIQRRLIENGVARVTDHAVVAVGAGGVTVRDTYASIERELECDTVVMVTARLPREELYLDLVARRDAGEIASVRGIGDAWAPGTIAAAVWSGRRAAEEFDAVLPSNDEVPFRREVTQLA
Q: Which Km does the source give for B1 here?
A: 24 µM

Q: And the kcat?
A: 9.8 s⁻¹
